Patent US20200299408A1 (Genentech, published 2020)
Like-named read-outs stand apart in the source and are kept apart here.

Experiments:
[1] = target: T1, single chain human CD3ε-26mer-CD3γ (CD3εγ) (human); assay: Biacore full (multi-) cycle kinetics; KD relative to hu38E4.v1
T1 construct: also called human CD3εγ
T1 chain: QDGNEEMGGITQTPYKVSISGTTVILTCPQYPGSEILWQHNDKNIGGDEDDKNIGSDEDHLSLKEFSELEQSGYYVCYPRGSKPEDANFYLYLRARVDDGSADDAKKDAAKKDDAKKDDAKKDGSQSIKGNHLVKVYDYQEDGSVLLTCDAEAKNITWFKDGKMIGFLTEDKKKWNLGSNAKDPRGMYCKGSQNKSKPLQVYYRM
Description: (§1) In addition, position 95 in HVR-H3 was also mutated to serine, threonine, or glutamate. Variants with these single point mutations were expressed as Fabs in HEK293 cells and initially screened with a single cycle kinetics method on a Biacore T100. Selected variants were also scaled up and purified for a conventional multi-cycle kinetics method. For single cycle kinetics, Biacore Series S CM5 sensor chips were immobilized with anti-human Fab antibodies (Human Fab capture kit, GE Healthcare). […] For conventional multi-cycle kinetics, human CD3εγ, cyno CD3εγ, or a 27-mer peptide were immobilized on Biacore Series S CM5 sensor chip using the amine coupling kit from Biacore. Serial 3-fold dilutions of each Fab variant were injected at a flow rate of 30 μl/min. Each sample was analyzed with a protocol of 3-minute association and 3-minute dissociation. In both methods, the Biacore chips were regenerated using 10 mM Glycine (pH 1.7). Binding response was corrected by blank subtraction and a 1:1Languir model of simultaneous fitting of kₒₙ and koff was used for kinetics analysis.

[2] = target: T1, single chain human CD3ε-26mer-CD3γ …; assay: Biacore full (multi-) cycle kinetics: antigen on chip, Fab injected; antigen not named on the sheet, taken as human CD3εγ
Description: as §1

[3] = target: CD3 antigen of Figures 3B and 3C (not named); assay: kinetic table of IgGs; method and antigen not stated
[4] = target: CD3 antigen of Figures 3B and 3C (not named); assay: as above; remark: listed apart in the source

Binder	ratio (fold) [1]	Kd [2]	koff [2]	kon [2]	Kd [3]	koff [3]	kon [3]	Kd [4]	koff [4]	kon [4]
hu38E4.v1 H3 mutant D95S (Fab, V domains shown, copies: 1 + 1) VH: EVQLVQSGAEVKKPGASVKVSCKASGFTFTSYYIHWVRQAPGQGLEWIGWIYPENDNTKYNEKFKDRVTITADTSTSTAYLELSSLRSEDTAVYYCARSGYSRYYFDYWGQGTLVTVSS VL: DIVMTQSPDSLAVSLGERATINCKSSQSLLNSRTRKNYLAWYQQKPGQSPKLLIYWTSTRKSGVPDRFSGSGSGTDFTLTISSLQAEDVAVYYCKQSFILRTFGQGTKVEIK	226 fold	180 nM	0.202 s⁻¹	1.12e+06 M⁻¹ s⁻¹						
hu38E4.v1 H3 mutant D95T (Fab, V domains shown, copies: 1 + 1) VH: EVQLVQSGAEVKKPGASVKVSCKASGFTFTSYYIHWVRQAPGQGLEWIGWIYPENDNTKYNEKFKDRVTITADTSTSTAYLELSSLRSEDTAVYYCARTGYSRYYFDYWGQGTLVTVSS VL: DIVMTQSPDSLAVSLGERATINCKSSQSLLNSRTRKNYLAWYQQKPGQSPKLLIYWTSTRKSGVPDRFSGSGSGTDFTLTISSLQAEDVAVYYCKQSFILRTFGQGTKVEIK	43 fold	34.2 nM	0.00175 s⁻¹	51100 M⁻¹ s⁻¹						
hu38E4.v1 H3 mutant G96A (Fab, V domains shown, copies: 1 + 1) VH: EVQLVQSGAEVKKPGASVKVSCKASGFTFTSYYIHWVRQAPGQGLEWIGWIYPENDNTKYNEKFKDRVTITADTSTSTAYLELSSLRSEDTAVYYCARDAYSRYYFDYWGQGTLVTVSS VL: DIVMTQSPDSLAVSLGERATINCKSSQSLLNSRTRKNYLAWYQQKPGQSPKLLIYWTSTRKSGVPDRFSGSGSGTDFTLTISSLQAEDVAVYYCKQSFILRTFGQGTKVEIK	2.4 fold	1.9 nM	0.00357 s⁻¹	1.86e+06 M⁻¹ s⁻¹						
hu38E4.v1 L3 mutant F92A (Fab, V domains shown, copies: 1 + 1) VH: EVQLVQSGAEVKKPGASVKVSCKASGFTFTSYYIHWVRQAPGQGLEWIGWIYPENDNTKYNEKFKDRVTITADTSTSTAYLELSSLRSEDTAVYYCARDGYSRYYFDYWGQGTLVTVSS VL: DIVMTQSPDSLAVSLGERATINCKSSQSLLNSRTRKNYLAWYQQKPGQSPKLLIYWTSTRKSGVPDRFSGSGSGTDFTLTISSLQAEDVAVYYCKQSAILRTFGQGTKVEIK	20 fold	15.9 nM	0.0232 s⁻¹	1.46e+06 M⁻¹ s⁻¹						
hu38E4.v1 H3 mutant Y100aA (Fab, V domains shown, copies: 1 + 1) VH: EVQLVQSGAEVKKPGASVKVSCKASGFTFTSYYIHWVRQAPGQGLEWIGWIYPENDNTKYNEKFKDRVTITADTSTSTAYLELSSLRSEDTAVYYCARDGYSRYAFDYWGQGTLVTVSS VL: DIVMTQSPDSLAVSLGERATINCKSSQSLLNSRTRKNYLAWYQQKPGQSPKLLIYWTSTRKSGVPDRFSGSGSGTDFTLTISSLQAEDVAVYYCKQSFILRTFGQGTKVEIK	110 fold	87 nM	0.0246 s⁻¹	283000 M⁻¹ s⁻¹						
hu38E4.v1 H3 mutant Y100A (Fab, V domains shown, copies: 1 + 1) VH: EVQLVQSGAEVKKPGASVKVSCKASGFTFTSYYIHWVRQAPGQGLEWIGWIYPENDNTKYNEKFKDRVTITADTSTSTAYLELSSLRSEDTAVYYCARDGYSRAYFDYWGQGTLVTVSS VL: DIVMTQSPDSLAVSLGERATINCKSSQSLLNSRTRKNYLAWYQQKPGQSPKLLIYWTSTRKSGVPDRFSGSGSGTDFTLTISSLQAEDVAVYYCKQSFILRTFGQGTKVEIK	521 fold	414 nM	0.0191 s⁻¹	46000 M⁻¹ s⁻¹						
38E4 (antibody, IgG3, V domains shown, mouse hybridoma clone; also called mu38E4) VH: QVQLQQSGPELVKPGASVTISCTASGFTFTSYYIHWVRQRPGQGLEWIGWIYPENDNTKYNEKFKDKATLTADTSSSTAYMQLSSLTSEDSAVYYCARDGYSRYYFDYWGQGTTLTVSS VL: DIVMTQSPSFLAVSAGEKVTMSCKSSQSLLNSRTRKNYLAWYQQRPGQSPKLLIYWTSTRKSGVPDRFTGSGSGTDFTLTISSVQAEDLAIYYCKQSFILRTFGGGTKLEIK					0.95 nM	5.32e-05 s⁻¹	56000 M⁻¹ s⁻¹	0.0783 nM	3.45e-05 s⁻¹	441000 M⁻¹ s⁻¹
